Experimental findings from patent publication US20220380471A1 (US Dept. of Health and Human Services, published 2022) are described below.

One experiment has as its target T1, B7H3 peptide 10 (human).
T1 peptide: QRVRVADEGSFTCFVSIR
The experiment in a line: peptide ELISA (OD450), 18-mer peptides of human B7H3. An excerpt: FIGS. 21A-21C: G8 cross-reacts with mouse B7H3 and kills mouse cancer cells. (FIG. 21A) Binding activity of anti-B7H3 nanobodies to mouse antigen detected by flow cytometry. […] (FIG. 21C). […] A total of 48 peptides from the human B7H3 protein were designed and synthesized. Each peptide consisted of 18 amino acids and overlapped with adjacent peptides by 9 amino acids. ELISA technology was used to test binding ability of antibody to each peptide. Number indicates the OD₄₅₀ value. […] The peptide sequences are shown below the table. C4 and B12 may have a conformational epitope that couldn't be predicted by a linearized peptide library.
A total of 48 peptides from the human B7H3 protein were designed and synthesized. Each peptide consisted of 18 amino acids and overlapped with adjacent peptides by 9 amino acids. ELISA technology was used to test binding ability of the antibodies to each peptide (FIG. 21C). […] C4 and B12 may have a conformational epitope that couldn't be predicted by a linearized peptide library.
In general terms: An ELISA detects its analyte on a solid surface through an enzyme-linked reagent.

Experiment [1] deals with T2, recombinant human B7H3-Fc protein (human, UniProt Q5ZPR3 29-466, limits assumed).
T2 construct: 154 kDa non-reduced, 77 kDa reduced; also called hB7H3-Fc; not shown: Fc part
T2 sequence (looked up): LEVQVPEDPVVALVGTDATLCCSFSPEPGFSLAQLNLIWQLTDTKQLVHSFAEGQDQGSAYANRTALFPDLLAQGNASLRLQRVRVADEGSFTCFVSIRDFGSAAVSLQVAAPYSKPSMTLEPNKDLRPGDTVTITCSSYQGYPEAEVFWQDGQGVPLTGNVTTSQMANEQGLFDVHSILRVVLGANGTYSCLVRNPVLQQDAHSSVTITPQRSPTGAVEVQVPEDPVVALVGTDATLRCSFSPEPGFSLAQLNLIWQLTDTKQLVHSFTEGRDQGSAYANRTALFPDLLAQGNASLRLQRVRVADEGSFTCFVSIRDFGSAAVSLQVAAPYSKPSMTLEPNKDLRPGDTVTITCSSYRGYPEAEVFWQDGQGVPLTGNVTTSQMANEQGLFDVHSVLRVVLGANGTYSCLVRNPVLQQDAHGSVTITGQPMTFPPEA
Put plainly: ELISA; row B7H3-Fc; well 2 of 3. In short, it runs like this:
(§1)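 Phage panning on recombinant B7H3-Fc yielded camel VHH nanobodies, which were then purified. Their binding was tested by ELISA against immobilised recombinant proteins, including B7H3 fusion proteins and proteins other than B7H3, and recorded as the ELISA signal.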

Experiment [2] concerns the target T3, human B7H3 (human, UniProt Q5ZPR3 29-466, limits assumed).
T3 construct: also called human B7H3 protein
T3 sequence (looked up): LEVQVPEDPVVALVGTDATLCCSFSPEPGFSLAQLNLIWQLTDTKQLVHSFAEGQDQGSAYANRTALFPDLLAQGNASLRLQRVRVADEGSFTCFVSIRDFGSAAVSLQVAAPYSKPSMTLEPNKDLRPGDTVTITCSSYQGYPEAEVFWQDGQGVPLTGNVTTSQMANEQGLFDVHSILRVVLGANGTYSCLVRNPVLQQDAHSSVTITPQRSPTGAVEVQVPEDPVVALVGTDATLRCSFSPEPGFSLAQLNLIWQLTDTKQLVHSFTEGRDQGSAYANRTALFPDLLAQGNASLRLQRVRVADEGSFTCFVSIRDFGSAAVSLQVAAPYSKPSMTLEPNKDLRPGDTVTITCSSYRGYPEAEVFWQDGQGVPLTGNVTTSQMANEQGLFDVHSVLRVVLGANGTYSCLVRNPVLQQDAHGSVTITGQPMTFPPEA
The experiment in a line: ELISA; row Human; well 2 of 3. A digest of the protocol:
as §1

Experiment [3] deals with T4, hB7H3-His (human, UniProt Q5ZPR3 29-461, limits assumed).
T4 construct: not shown: His tag
T4 sequence (looked up): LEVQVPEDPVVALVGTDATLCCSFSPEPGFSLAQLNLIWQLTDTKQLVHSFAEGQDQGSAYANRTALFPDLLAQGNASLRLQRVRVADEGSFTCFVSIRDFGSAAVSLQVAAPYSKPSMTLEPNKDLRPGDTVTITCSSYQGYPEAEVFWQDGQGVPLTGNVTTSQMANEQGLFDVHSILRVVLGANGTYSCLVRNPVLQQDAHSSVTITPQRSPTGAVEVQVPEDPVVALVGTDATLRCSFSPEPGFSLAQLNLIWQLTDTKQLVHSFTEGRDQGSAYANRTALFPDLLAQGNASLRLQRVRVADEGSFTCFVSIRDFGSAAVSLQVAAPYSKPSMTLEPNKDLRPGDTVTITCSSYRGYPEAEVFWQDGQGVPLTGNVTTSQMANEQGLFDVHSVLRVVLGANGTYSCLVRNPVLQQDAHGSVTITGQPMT
Put plainly: ELISA; row B7H3-his; well 3 of 3. In short, it runs like this: as §1

Experiment [4] deals with T5, B7H3 (CD276) on MC38-CD276+ cells.
T5 construct: whole, on cells; MC38-CD276KO cells served as the negative control; also called MC38-B7H3+
T5 sequence (Q5ZPR3 1-534, species assumed, looked up): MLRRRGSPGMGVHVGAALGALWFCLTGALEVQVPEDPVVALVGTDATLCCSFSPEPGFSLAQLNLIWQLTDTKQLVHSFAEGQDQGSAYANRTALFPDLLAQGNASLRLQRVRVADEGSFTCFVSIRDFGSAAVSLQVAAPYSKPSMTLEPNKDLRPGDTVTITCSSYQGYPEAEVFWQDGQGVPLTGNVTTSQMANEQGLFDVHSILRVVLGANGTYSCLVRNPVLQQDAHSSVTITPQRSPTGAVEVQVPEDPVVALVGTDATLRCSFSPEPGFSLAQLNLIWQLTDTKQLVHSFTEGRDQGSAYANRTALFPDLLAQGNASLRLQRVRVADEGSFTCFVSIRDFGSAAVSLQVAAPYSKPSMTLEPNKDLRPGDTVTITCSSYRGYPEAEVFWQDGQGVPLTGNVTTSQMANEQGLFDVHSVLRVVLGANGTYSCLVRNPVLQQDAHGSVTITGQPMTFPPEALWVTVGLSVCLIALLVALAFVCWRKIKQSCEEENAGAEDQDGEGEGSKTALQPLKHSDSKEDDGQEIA
The experiment in a line: flow cytometry on MC38-CD276+ cells, VHH at 2 ug/ml. (In flow cytometry, cells or beads pass a laser one at a time.)

For experiment [5], the target named is HN3-Fc. The experiment in a line: ELISA; row HN3-Fc; well 2 of 3. A digest of the protocol:
as §1

Experiment [6] has as its target HN3-Fc. Put plainly: ELISA; row HN3-Fc; well 1 of 3. A digest of the protocol:
as §1

For experiment [7], the target named is T3, human B7H3. Put plainly: ELISA; row Human; well 1 of 3. A digest of the protocol:
as §1

Experiment [8] addresses PD-L1. Put plainly: ELISA; row PDL1-Fc; well 3 of 3. A digest of the protocol: as §1
Experiment [9] has as its target PD-L1. The experiment in a line: ELISA, purified VHH, cross-reaction.
Experiment [10] deals with B7H3 R&D. Put plainly: ELISA; row B7H3 R&D; well 2 of 3. In short, it runs like this: as §1
The target in experiment [11] is B7H3 R&D. Put plainly: ELISA; row B7H3 R&D; well 3 of 3. A digest of the protocol:
as §1

In experiment [12] the target is T4, hB7H3-His. The experiment in a line: ELISA; row B7H3-his; well 2 of 3. In short, it runs like this:
as §1

Experiment [13] deals with T3, human B7H3. Put plainly: ELISA; row Human; well 3 of 3. In short, it runs like this: as §1

PD-L1, sequence (Q9NZQ7 whole entry): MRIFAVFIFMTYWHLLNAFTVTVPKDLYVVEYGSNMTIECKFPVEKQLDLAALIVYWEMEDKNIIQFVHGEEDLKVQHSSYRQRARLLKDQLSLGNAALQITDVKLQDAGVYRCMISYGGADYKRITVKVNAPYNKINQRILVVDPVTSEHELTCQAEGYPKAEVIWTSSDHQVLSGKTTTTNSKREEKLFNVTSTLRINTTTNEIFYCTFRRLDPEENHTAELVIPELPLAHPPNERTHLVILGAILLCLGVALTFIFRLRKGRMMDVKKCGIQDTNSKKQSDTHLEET

B1: RWB12 (VHH)
VHH: QVQLVESGGGSVQVGGSLRLSCAASGFTYNSYSVGWFRQAPGKEREGVAAINSGGSSTYYAASVKGRFTISRDNAKNTVYLQMNSLKPEDTAMYYCAARSPSPLTFQTRTLREDSYNYWGQGTQVTVSS
notes: Camel VHH; tag not described; also called camel antibody RWB12
With B1, in the experiment with B7H3 peptide 10, the binding result is on record as “no binding”. The “ELISA reading (name not given)” value in experiment [1] worked out at 0.945; with human B7H3 [2], 0.21; with hB7H3-His [3], 0.0946; with HN3-Fc [5], 0.0616; with HN3-Fc [6] it was 0.0533; in the experiment with human B7H3 [7] it was 0.181. In addition, the “ELISA reading (name not given)” value with PD-L1 [8] is 0.0624; in the experiment with B7H3 R&D [10], 0.0559; with B7H3 R&D [11], 0.0955; with hB7H3-His [12], 0.0595; with human B7H3 [13], 0.199. The same molecule returned a Positive rates in experiment [4] of 0.18%. The ELISA signal with PD-L1 [9] amounted to 0.0454.

B2: RWC4 (VHH)
VHH: EVQLVESGGGSVQAGGSLRLSCVASEDSTSAMCMGWFRQAPGKEREGVACINPTGEVTWYGDSVKGRFTISRDTVKKIVYLQMNSLKPEDTAMYYCAARVTYGGDWSTDTDYEYWGQGTQVTVSS
notes: Camel VHH; tag not described; also called camel antibody RWC4
For B2, the binding result with B7H3 peptide 10 is “no binding”. The “ELISA reading (name not given)” value in experiment [1] is 1.99; with human B7H3 [2] it was 0.979; with hB7H3-His [3], 0.0811; with HN3-Fc [5], 0.046; with HN3-Fc [6] it was 0.0801; in the experiment with human B7H3 [7] it was 0.976. The “ELISA reading (name not given)” value with PD-L1 [8] amounted to 0.0613; with B7H3 R&D [10], 0.151; with B7H3 R&D [11], 0.156; with hB7H3-His [12], 0.0879; in the experiment with human B7H3 [13], 0.938. The molecule also gave a Positive rates in experiment [4] of 84.7%. This molecule came in with an ELISA signal with PD-L1 [9] of 0.043.

B3: RWG4 (VHH)
VHH: QVQLVQSGGGLVQPGGSLRLSCAASGFTFSVYWFYWVRQAPRQGLEWVSTIASNGSTYYSDSVKGRFTISRDNAKNTVYLQMNSLKPEDTAVYYCVSDPDYYSDYERAYKFWAQGTQVTVSS
notes: Camel VHH; tag not described; also called camel antibody RWG4
For B3, in experiment [4], the Positive rates is 23.4%. In the experiment with PD-L1 [9], the ELISA signal amounted to 0.0614.

B4: RWG8 (VHH)
VHH: DVQLVESGGGLVQPGGSLRLSCAASGFTFSRYWMGWFRQAPGKGVEWVSTINSGGGSTYYADSVKGRFTISRDNAKNTLYLQLNNLKTEDTAMYYCAKEQWRTGSRGQGTQVTVSS
notes: Camel VHH; tag not described; also called camel antibody RWG8
For B4, the binding result in the experiment with B7H3 peptide 10 was “binds”. Besides, the “ELISA reading (name not given)” value in experiment [1] is 2.01; with human B7H3 [2], 0.147; in the experiment with hB7H3-His [3] it was 0.0636; with HN3-Fc [5], 0.0514; with HN3-Fc [6] it was 0.05; with human B7H3 [7], 0.136. The “ELISA reading (name not given)” value is 0.0999 with PD-L1 [8]; 0.0632 in the experiment with B7H3 R&D [10]; 0.0646 with B7H3 R&D [11]; 0.0686 with hB7H3-His [12]; 0.164 in the experiment with human B7H3 [13]. The molecule further gave a Positive rates in experiment [4] of 0.31%. In the experiment with PD-L1 [9], this molecule registered an ELISA signal of 0.0715.
